Assay: label from the status in PepcDB records

Sequence | protein production
MKALTVNKTIFILVIAASLLLGAAVGYIAHSLTAGGGGVVVTGSKAVSTGTSIGVYLTIKNNTNTTSCIVGADIAESVSGKVVVDIHKTVEEGGRVVMMPAGPICLGPGETLEMRQGPGSYHVMIMGDRSAIEKITEDGVVEIKVLVEQQVDAPITGP | failed
MRLYERSSCLLQPPDYSLMNDSTDAQDVSQARVWLWAARPKTLGAAVAPVLVGTGMALEAGAWHLLSALLALAGAVLIQVGVNYHNDYADYVQGADTQERVGPLRVTQAGLVAPQTMRRATILVFGLAVMAGLYLIARGGWPILAVGVASIGAAIWYTAGRYSLAALGLADVFVFVFFGPVAVGGTYYVQALSLPTEVLLAGGGPGLLSIGILLVNNVRDVAEDRRAGKRTLVVRFGRRFGVAAYGACLVGALLLAGLLAAGLFGTTPHPWAALPLGLLPLAIGPIRRLSETTDPEKLNPLLGATGRILVLWALLFAVGWNL | failed
MKEPPMTKTVFHLGVTEADLNGATLAIIPGDPARVQKIAELMDNPVFLASHREYTVYRAELDGQSVVVCSTGIGGPSTSIAVEELAQLGVRTFLRVGTTGAIQPHVNVGDMIVTTGSVRLDGASLHFAPMEFPAVPDFDVATAMKAAAQESGATVHMGVTASSDTFYPGQERYDTFTGRVVRRFQGSMKEWQDMGVLNFEMESATLLTMCASSGLKAGCVAGVIINRTQKEIPDHATLKETEARSIKVVVEAARKMLK | not failed
SEAWEYFHLAPARAGHHPNQYATCRLCGRQVSRGPGVNVGTTALWKHLKSMHREELEKSGHGQ | not failed
MIRLGLTSFSEHDYLTGKKRSTLYEYASHLPLVEMDTAYYGIPPKERVAEWVKAVPENFRFVMKVYSGISCQGEWQTYYASEEEMITAFLESMAPLIESKKLFAFLVQFSGTFGCTKENVAYLQKIRHWFKDLPIAIELRNNSWYQPNFVKQMLQFMKENQFSLVIVDEPQIPTNPVPFYPYVTNPNLVLFRFHGRNAAGWLANDAEWRKKRTLYHYNTQEIADLSEAVLKMSQEAKEVGVIFNNNSGGDAAENALQMQKVLNLSYDDLNPKQLDLF | not failed
MGICVVIPAFNAALTIEAVVRETLEQGLPLVVVDDGSEDGTADCVRGLPVNLVSHGRNRGKGAALKTGFAWALEYGFSGVITLDSDGQHDPTAITLLAETAKNDGWDILVASRFAQFNQMAGLRRHWNRFGAWCMKKRTGFQIDDSQSGFRYYSARLLRMVSLGKDGYDLEMEILMKAWQAGCTIGSVPVPARVADGRATSHFRPVRDTWNICMTFLRYMLEHHHHHH | failed
MAIPGNMWIYDDGGALIKGGCDVADREFSIEFKGFHHNLSIPTDHATGKPTGTRQHSPMIIVKEFDYSSPYLYKAVATGQNLKSAEIKWYKISDAGQEVEYFNMLLEGVRIVSISPTMASPEDKNNNHLESVELRYEKITWKHCDGNIIFTDAWNERQTA | not failed
MAGKEFKQRIRQALNNASLRGALGRFADSYVVSREEVYAGRDFESLRQRIAAIKADAAGRYEELADRFSRAVEARGGKVFRAKDAAAAREYIYQVAKEHGVTEIVKSKSFASEEIHLNEFLQERGINPYETDLAEWILQLMPGERPSHMVMPAIHLPKEEVARVFSRYLGEPVEPDIKNMVRIARRELRKKFLTAGMGISGANIAVAETGTIVLCTNEGNARLTTTVPPVHVAIVGYEKLVPSIKDIVPILEALPRSGTAQPITSYVTMITGPVPAWRGEGEGIKELHVVLLDNGRTRMAADPVFKEALQCIRCASCTNVCPVFQLVSGQVYGYIYNGGIGSVLTAFFNSLEDAVDPQSLCIGCRRCAEVCPAKINIPDLVLKLRERVVTKQGLSSGYRIALHGIVAKPKLMHTLLRAASRLQGPVTHGQPLIRHLPLFFSNLTSGRSLPAIAKEPLRDRVKRLEARTGRPRLKAAFYSGCVIDFAYPEIGEAVYKVLGREGVQVTFPQGQACCGAPAVYAGDRETAVKLAKQNITALEEARADVVVTACPTCAVALKKDFPELLAGEPAWEERARALAKKVKDFTELVHELTGGQGKKVKQAKKSGSGAVKVTYHDSCHFKRHLGLDQVARQVLKEQPGVELVEMQESDRCCGFGGSYSIKYPEISAPILERKLKNITESGAQVVAADCPGCVLQLRGGLDQKGSSIKVKHTAEVLAALENLQGGGNSK | failed
YNFSFLSPQGLSFASQGPSAPFWSVFTPRVIGTAVARYNFAARDMRELSLREGDVVRIYSRIGGDQGWWKGETNGRIGWFPSTYVEEEGIQ | failed
MITRTIRGILKGAAVFLGLAGAIALLHAFGLDSTLDTAWIDSHIRDHGLQGHLLYIGIAGVLTALAVPRQFVSFLGGYAFGAAFGTLWATVGATLGCMLTFFYARFAGQSLVNRRFSHRVARVNAFLSRNPFTMTFIIRCLPVGNNVLTNLIAGVSSIPAVQFFAGSFIGYIPQHFIFALLGSGVHVSPVLRTVTSALLFVLSSVFGYMLYRRYRIDRDLEEPDDQ | failed
MTDTSTADVDLVGEEMALNVARTALFAALMGAFAYVSFPYPLSPAPVTLQVLGVFLAGLLLGPLWGGAAMVVYLLAGVLGAPVFSAGEAGIGVILGPQGGYLLSYPFAAAIVGGIVHRGTDIKPLETVSAALMIAAMILSTVVIYAFGIPFMWWNLEMTLLNAVIAGGVVFIPAEAAKMAAAIGIVRSDAIRAE | failed
MLIVIGYAVVILAVVGSFIGLGGHLGALYQPFELTLIAGAAVGAFMAGNSRKSLGLVAKAIPEAFRSSPYSKDVYMELMALLYVLLNKARREGLMAIESHIEDPLSSPIFNEYPRIMKDAKLMEFITDYLRIMISGNMSSFEIETLMDEEIETYRHEREVPTHALQQVADALPAFGIVAAVLGVIKALAAVDQPPAILGDLISKAMVGTFLGVLLAYGFVAPMAARIERRTSESVKVLECIKVTLLASMNGYPPQLAVEFGRKVLFSAVRPSFGELEEHVRQAKSAATGRA | failed
MLDHVIRGATVVDGTGAPAYTADVGIRDGRIAAVGTVTEPARAGEDAAGLVLAPGFVDPHTHYDAQLFWDPYATPSLNHGVTTVAGGNCGFTLAPLNPDRPQDADYTRRMMSKVEGMSLVALEEGAPWSWHTFGDYLDALEGRIAVNAGFMVGHCALRRYVMGPDAVGGRPTREQLERMLALFHEAMDAGAWGLSTTQSSTHSDGDGQPVASRHARPAELLALARAVGEHEGTQIEAIVAGCLDQFSDAEIDLFVEMSAAAGRPLNWNVLTIDAAVPERVPRQLTASERARKAGGRVVALTMPILTPMNMSLGTFCALNLIPGWGEVLGLPVPERIARLRDPDVRAELLRRADSKEAGVFRRLANFGRYVIGDTYSTANEGLTGRVVNDIAAERGQDPFHCLVEICAADELRTVLWPMPTDNDPDSWALRAETWRHKDVLLGGSDAGAHLDRMCGAPYTTRFLGDCLRGRKLVPLEQAVKMLTDDPARLFGLRDRGRIREGFHADLVLFDPARIDAGKATLVHDLPGDSPRLDSKAIGVTAVWVNGVEAIRDDVVTGAVPGKVLRSGRDTRTVSTR | failed
MEMVNAEAKQSVPLLTPYKMGRFNLSHRVVLAPLTRQKSYGSVPQPHAILYYSQRTSPGGFLIAEATGVSDTAQGYPDTPGIWTKEHVEAWKPIVDAVHAKGGIFFCQIWHVGRVSNRGFQPRRQAPISCTGKPIMPQMRANGIDEARFTPPRRLSIEEIPGIVNDFRLAARNAMEAGFDGVEIHGAHGYLIDQFMKDKVNDRTDEYGGSLQNRCKFALEVVDAVAKEIGPDRVGIRLSPFADYMESGDTNPEALGLYMVESLNKYGILYCHMIEPRMKTVGEIAACSHTLMPMREAFKGTFISAGGFTREDGNEAVAKGRTDLVAYGRWFLANPDLPKRFQLDAPLNKYNRSTFYTSDPVVGYTDYPSLESTA | failed
MTKTLVIIAHPDMARSRVNAAWAEALRRAGDITLRDLSALYPDGMIDGAVERSLLEAHDRIILQFPLTWYSCPPILSAWQIAILTRGWAYGPGGRALRLKTLGVALSTGSNGRDYQPDGRYGRTLEDVTVPFELMARHTGMHYLPPFTLTGVRECDDAAVAASARAYLDHVRTAKPRILASGRDDDRARTVYPLEAGAR | failed
MTLSTINPMKKSRIDNIHHTQILFFSDENQIDQEAPYYDALLDLEKDYPEQIDKMKVYDKKEGWEDEIETVPTLMVVDQRHVVVKIEGCVKKKEDIIKPLQHVLSKLEHHHHHH | not failed
MDKKKHSLKAPVMTHRAFLALAIPLIFSAMTTPLIGAVDTAIVGHLQDPALIGGVAVGALIFNTMYWLFGFLRVSTSGFSAQALGRKKEDDIMLAFVRPFLLAMFVGLSFILLQHPIKSASLLIISPPEHVGLFAEQYVAIRIWGAPFALISYVVIGWLMGIGRIRGAVTIQIGTNLLNVALDFLFVYWMQWGIGGVAAASLIAEVTGAVAGCLFVLRCYSFSVFSSLTQVLDKRPILHMLTVNRDLFIRTICLLTVLTTFTSIGARFGEVSLAANAILLQLHYLMAYMFDGVANAASIVVGRSVGARDRSLFERVVRLDIVWSSVICLWLVCTLGLMKEPIIALFTSIPAVQAETLQLFGWIMLFPIAGFWGLQLHGMFSGATVARPIRQSMIIAMLVFLISCWLFVPLWGNNGLWLSFIVFTIARSMTLHLSYPALQRLFHDKERSIGA | failed
MFKKGVVPSQGLRIIIVGCGKVGRTLVEQLGKEGHDITIIDKNRERISQVSNIYDVMGIAGNGASYKILQEAGIDDADLIIAVTGSDELNLLCCTIATQVGNCAAIARVRTPEYSQEAKYLRDKLGLALIINPELEAAIEMAHILHLPSSLEVTNFAHGQAQLIKYEIPEGSILDGTKLMDLGTRHHANILIGAVERDDEVTIPSGDFVLRKGDKLSFVGERRHTKEFFSHIGVNTHSVKNTLIIGGGKAAYYLAKQLISRGIKVKIIENSFERCEELSILLPDAVIINGDGTEQALLKEEGIETCQSFVPLTGIDEENIMLTLYAKQVSNAKVITKLNRITFTNVINSLDLGSVISPKYITSEAIIAYVRAKKNSMNCNIETLYHMYDSRVEAIEFFVSENSNVTDIPLRDLKLKKHLLICFINRNGKIIIPTGNDCIQKNDTVMIITTNTGFTNLQDIME | failed
MNRTMSSINVLSLPVFNRDASGYDALRRGLIPCFDAFYGTALDLIDDWRDAEKLRVLDLGAGTGLFTAMLLTRHPDAQIHLIDASEKMLEQARKRFDGNPAITYAVADMANTELGGPWDLIISALAIHHLEDIGKKHLFGEIRGALSEGGLFVNVEQVLGHDPEVEARYARTWLQQVRRLGVAEVEIAKAHERMSHDRCSPLENQLQWMRDTGFCEIDCSFKAWRFAVLSGRR | failed
MTRSEQNPVLFLAPDNVLWLLYTAQKSGNQDTAIVRYRQSTDLGATWGEIGTLLDQPGTFIRQPITVLENGDWLLPVFYCRVQPGEKWVGNDDDSAVKISSDQGKTWREYPVPNSTGCVHMNITPLQDGTLLALYRSRWADFIYQSRSTDGGKTWSEPVATDLPNNNSSIQVTTLKNGHLALVFNHMSAADATDRRLSLYDEIEDEEDKASGAKMPEVQAGDRSAFWGAPRAPMTLAISEDGGKSWPYQRNIEVGDGYCMTNNSTEKLNREFSYPSVKQAPDGKLHVAFTYFRQAIKHVVVSEEWVKAGLEHHHHHH | failed
YLKDLSLLISNDKQTILYAPTWKGNSVSKVKNDVFQIISDMNYLEEKIGSDYNVLIKVHPFLYSEASKVSELKGKLIPDFIDTNQLLSTVDILITDYSSIFFDFLVTDRPILFYMWDADDYNKQRGKYINNEDLPGPVLYNVRELVEAIGNIHQVKSEFQTNYEKNKVKFTNHDDGNVTKRVVEKIFK | failed

Reference: a protein production outcome set (Wang et al. 2014)
